Literature values as cited in publication PMC3000922.

Molecular target: integrin β3 cytoplasmic tail (Homo sapiens) (UniProt P05106)
Assay: SPR

UniProt P05106, sequence (P05106 742-788): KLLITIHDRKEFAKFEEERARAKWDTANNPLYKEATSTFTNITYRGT

Kd: 7 µM
Substance: integrin αIIb cytoplasmic tail (from UniProt P08514)
